These results are taken from paper PMC4523205.

pKd: −log10 of the molar value. Where two headings read alike, the source gives them in different places.

Assay [1] addresses gp41_(596-606) peptide with Cys604 substituted by Ala, N-terminal biotin (HIV-1) (UniProt P04578). Kind of assay: SPR; BIAcore 4000; biotinylated 11mer and its alanine-substituted variants on a streptavidin chip; 7B2 (Fab by the legend) at 20 μg/ml; responses of the irrelevant antibody Synagis subtracted. For orientation: In SPR one partner is held on a chip, and binding of the other changes the refractive index at the surface.

Assay [2] concerns the target rhesus macaque FcγR3A-1 (rhesus macaque) (UniProt A3RFZ7). Kind of assay: SPR.
For assay [3], the target named is human FcγRIIIa/CD16 (human) (UniProt O75015). Kind of assay: SPR; mAb binding to recombinant purified Fc receptors; who was immobilised is not stated.
The target in assay [4] is rhesus macaque FcγR3A-3 (rhesus macaque) (UniProt A3RFZ7). The assay is described as above.
rhesus macaque FcγR3A-3 (rhesus macaque), sequence (A3RFZ7 21-206): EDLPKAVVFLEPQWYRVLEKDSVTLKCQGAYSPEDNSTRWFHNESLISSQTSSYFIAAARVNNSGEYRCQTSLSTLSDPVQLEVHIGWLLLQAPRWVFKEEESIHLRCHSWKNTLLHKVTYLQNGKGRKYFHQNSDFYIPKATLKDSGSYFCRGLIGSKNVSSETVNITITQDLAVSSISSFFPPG
In assay [5] the target is rhesus macaque FcγR3A-1 (rhesus macaque) (UniProt A3RFZ7). The description is as above.
rhesus macaque FcγR3A-1 (rhesus macaque), sequence (A3RFZ7 21-206): as above
In assay [6] the target is human FcγRI (CD64) (human) (UniProt P12314). The description is as above.
human FcγRI (CD64) (human), sequence (P12314 16-292): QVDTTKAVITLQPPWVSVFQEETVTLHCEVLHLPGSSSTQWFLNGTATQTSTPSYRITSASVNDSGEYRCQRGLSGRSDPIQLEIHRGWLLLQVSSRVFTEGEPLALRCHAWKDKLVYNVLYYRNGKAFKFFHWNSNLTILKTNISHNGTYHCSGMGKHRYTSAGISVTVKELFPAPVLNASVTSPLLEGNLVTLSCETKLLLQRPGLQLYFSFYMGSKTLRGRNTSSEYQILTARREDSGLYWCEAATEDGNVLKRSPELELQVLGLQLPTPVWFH
Assay [7] addresses Env of HIV-1 SF162.B, on virions (HIV-1) (UniProt P19550).
Assay [8] concerns the target Env of HIV-1 BaL.B, on virions (HIV-1).
Assay [9] concerns the target Env of SHIV-BaL, on virions (HIV-1 (env of SHIV-BaL)).
In assay [10] the target is 7B2 Fab. Kind of assay: SPR. The conditions noted are these: for response: sensorgram read at ~140 seconds after starting injection of 7B2 Fab, parent: est. 1400, read off a plot.
[11] abbreviates: binding response at saturation (~140 seconds after starting injection of 7B2 Fab).

7B2 Fab returned an off-rate relative to the wild-type peptide (fold) in [1] of 2.8 fold.

What is called pKd is the Kd on a negative log10 scale, so that one unit is a factor of ten. Substance 7B2 IgG1_AAA showed a pKd in assay [2] of 7.03.

On to 7B2 IgG1_AAA (antibody), for which the pKd in assay [3] is 5.96; in assay [4] it was 6.83; in assay [5] it was 7.16; in assay [6], 7.31. The same substance showed a neutralisation of HIV-1 SF162 in macrophages, IC90 in assay [7] of 0.2 not printed. Moreover, the neutralisation of HIV-1 BaL in peripheral blood monocytes differentiated into macrophages, ID50 in [8] turned out to be 0.05 µg/mL. The substance also registered a neutralisation of SHIV-BaL in the TZM-bl assay, IC50 in assay [9] greater than 50 µg/mL.

A32 IgG1_AAA had a pKd in assay [2] of 7.34.

Broadly, the koff is a measure of how fast the partners let go of each other. The term kon denotes a measure of how fast the partners come together. Regarding A32 IgG1_AAA (antibody), in [4], the pKd is 7.25, the koff was 0.0061 s⁻¹ and the kon amounted to 110000 M⁻¹ s⁻¹. For the same substance, in assay [5], the pKd was 7.30, the koff came to 0.0094 s⁻¹ and the kon was determined as 190000 M⁻¹ s⁻¹.

As for “gp41_(596-606) peptide, wild type, N-terminal biotin C598A”, the ratio to parent in [10] is 25; in assay [10] (setting [11]) it was 0.16. Also, in assay [10], the response was 200 RU.

Turning to “gp41_(596-606) peptide, wild type, N-terminal biotin G597A”, the ratio to parent stood at 5.15 in [10] and 0.6 in [10] (setting [11]).

Regarding “gp41_(596-606) peptide, wild type, N-terminal biotin G600A”, the ratio to parent in assay [10] and in assay [10] (setting [11]) was 0 each time.

Turning to “gp41_(596-606) peptide, wild type, N-terminal biotin I603A”, the ratio to parent in assay [10] came to 31.7; in assay [10] (setting [11]) it was 0.32. For the same substance, in [10], the response was 430 RU.

Regarding “gp41_(596-606) peptide, wild type, N-terminal biotin K601A”, the ratio to parent in assay [10] worked out at 0.59; in assay [10] (setting [11]) it was 1.24.

As for “gp41_(596-606) peptide, wild type, N-terminal biotin L602A”, the ratio to parent in [10] stood at 4.65; in assay [10] (setting [11]), 0.38.

Turning to “gp41_(596-606) peptide, wild type, N-terminal biotin S599A”, the ratio to parent in assay [10] is 21.4; in assay [10] (setting [11]) it was 0.64. In [10], the response amounted to 880 RU.

Regarding “gp41_(596-606) peptide, wild type, N-terminal biotin T605A”, the ratio to parent in assay [10] amounted to 0.79; in assay [10] (setting [11]) it was 0.99.

Regarding “gp41_(596-606) peptide, wild type, N-terminal biotin T606A”, the figures for the ratio to parent in [10] and in assay [10] (setting [11]) were 1.11 and 0.89, respectively.

For “gp41_(596-606) peptide, wild type, N-terminal biotin W596A”, the ratio to parent in assay [10] was determined as 8.65; in [10] (setting [11]) it was 0.83.
